B1: VH:VL chains; a variant is named by its letters at X, in order (parent)
chain 1: QVQLVQSGAEVKKPGASVKVSCKASGYTFTDYXMHWVRQAPGQGLEWMGXVNPNXXXTTYNQKFEGRVTMTTDTSTSTAYMELRSLRSDDTAVYYCARXNXLDXWGQGTTVTVSS
chain 2: DIQMTQSPSSLSASVGDRVTITCSVSSSVSSIYLHWYQQKPGKAPKLLIYSTSNLASGVPSRFSGSGSGTDFTLTISSLQPEDFATYYCQVYSGYPLTFGGGTKVEIK

Variants of: B1
Experiment: yeast display scFab, FACS + sequencing
Summary of the method: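 Non-specific binding was called from deep sequencing of sorted yeast cells displaying a heavy-chain CDR mutant scFab library. Cells labelled with anti-Myc and biotinylated ovalbumin (260 μg/mL in PBSB, 3 h, room temperature) or soluble membrane proteins (130 μg/mL, 20 min on ice) were FACS-sorted, collecting the top 25% and bottom 10% of binders from two replicates. A sequence was positive when present in ≥3 of 4 pooled positive samples and absent from all negatives, and negative under the converse rule.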

Variant | non-specific binding call
SEARSFGV | no binding
VEAGDAVA | no binding
SARGGYWY | binds
AEAGDAVV | no binding
AATTDSVD | no binding
VATGGYAV | no binding
VEAGDAAV | no binding
VEAGDAAA | no binding
VEARGDGA | no binding
AATRNVGV | binds
VEAGDDWV | no binding
VATTDSVD | no binding
DATRGAGD | no binding
DATRGAGY | no binding
VATGDSLV | no binding
SEARSDVF | no binding
SEARSDVY | no binding
SEARSDVV | no binding
SEARSDVD | no binding
VATRAVGA | binds
AATTDDAV | no binding
SEARSDGY | no binding
SEARSDGF | no binding
SEARSDGS | no binding
AEAGADVV | no binding

Variant | non-specific binding call
DATGGYAV | no binding
DEARNAGA | no binding
VATGDDWV | no binding
SEARSAVA | no binding
SEARSAVV | no binding
SEARSAVS | no binding
SEARSAVY | no binding
YATGDDGV | no binding
DATGGASD | no binding
SEEASSSA | no binding
VEARNDWA chain 1 M81I | binds
DARRGAGV | no binding
SEARSDLA | no binding
SEARSDLY | no binding
VEAGDSLD | no binding
YATGDDVA | no binding
FEAGDDGV | no binding
SEARSAGV | no binding
DATGGSVD | no binding
FARGGSAD | no binding
DARGGDWV | no binding
DEAGGDGY | no binding
YEAGTAVA | no binding
DATGGALD | no binding
AATTSFVV | no binding

Variant | non-specific binding call
YATTSFSF | no binding
SEARNDGA | no binding
YATRGAAA | binds
FARGGYVA | binds
YATEGVWV | binds
SEARSDAD | no binding
SEARSDAS | no binding
SEARSDAV | no binding
SEARSDAA | no binding
DATGNVWS | binds
YARGGAGA | no binding
YARGTAVD | binds
SEEASDGA | no binding
VEAGDSSS | no binding
VEAGDSSA | no binding
FEATASWS | binds
DEAKAAVD | binds
FARKSFGS | binds
SEARSSAS | no binding
SEARSSAD | no binding
VEEASSWA | no binding
YARTGFGA | binds
VEEEDYSS | binds
FATEGASA | no binding
DATGGDVD | no binding

Variant | non-specific binding call
DATGGDVV | no binding
DATGGDVF | no binding
DATGGDVA | no binding
DATGGDVY | no binding
AEARSDGA | no binding
SEARSSWV | no binding
SEARSSWS | no binding
SEARSYLV | no binding
VEAGDDGA | no binding
FARKGDGV | no binding
DATRSSWD | no binding
VATKGFVV | no binding
SEARSSLV | no binding
SEARSSLA | no binding
SEARSYAV | no binding
DATEDDSA | no binding
FEATAAGS | binds
DARGGSLD | no binding
DARGGSLS | no binding
DATGGDWA | no binding
FARKSYGA | binds
DARRGSGD | no binding
VEAGDALV | no binding
SEARSALA | no binding
SEARSALV | no binding

Variant | non-specific binding call
SEARSALD | no binding
VEEEAFAV | no binding
YARRGDGA | binds
FEARDYWD | binds
VARGGSVD | no binding
SEARSDSF | no binding
SEARSDSV | no binding
DATTDSVD | no binding
AATTDSSS | no binding
YATAADAD | no binding
DARGGSAD | no binding
SEARSSGV | no binding
SEARSSGY | no binding
SEARSSGF | no binding
DATGGSGA | no binding
DATGGSGD | no binding
VATGDDGV | no binding
DARGGAGA | no binding
DATGGAGD | no binding
AEARAAGS chain 1 V37I | binds
DARGAYLV | no binding
FARKSDSS | no binding
VEARNAGA | no binding
YATKGFGD | binds
SEARSAAV | no binding

Variant | non-specific binding call
FATTDSVD | no binding
DEAGDAVV | no binding
DEAGTAVA | no binding
VEAGDAGS | no binding
VEAGDAGD | no binding
VATGDFGV | no binding
FARGGDAV | no binding
SARKGDVA | no binding
DATGGFGV | no binding
YARRGSGV | binds
AATTDSGV | no binding
AATTDSGD | no binding
SATKTVVV | binds
DARGGSSA | no binding
DARGGSSY | no binding
DARGGSSV | no binding
DARGGSSS | no binding
AATGSAWA | no binding
SEARSDWV | no binding
SEARSDWA | no binding
SEARSDWD | no binding
SEARSDWF | no binding
FARGASGV | binds
DARGGAVV | no binding
DARGGAVY | no binding

Variant | non-specific binding call
DATGGDGY | no binding
DATGGDGA | no binding
DATGGDGV | no binding
DATGGDGS | no binding
FATKGAWV | binds
DARGGAAV | no binding
SARTDFWF | binds
VATGDDVA | no binding
VATGDDVY | no binding
VATGDDVD | no binding
SEEASAVY | no binding
YARRDVGA | binds
DEARSDGA | no binding
FARKGSGA | binds
VATRGYLV | binds
DEEASSWA | no binding
DARGGFGV | no binding
VEEAAAGV | no binding
VEAGDDSA | no binding
SEARSYVV | no binding
FATGGSGD | binds
SEARNAGD | no binding
YARGGDLD | no binding
FATGSDGA | no binding
YATGGYAV | no binding

Variant | non-specific binding call
YEARNAGA | no binding
FATRASGD | binds
DATGGSLD | no binding
DARGGDVY | no binding
FATKGFGD | binds
DATGGAAA | no binding
YARRAAVS | binds
VATRGFWD | no binding
VEARGDWV | no binding
FEAGDSGA | no binding
YATEAFSD | binds
FEAESYGV | binds
SEARSSSY | no binding
SEARSSSV | no binding
SEARSSSD | no binding
SEARSSSF | no binding
SEARSSSA | no binding
SATTDSVD | no binding
SARTDFWF chain 1 K19N | binds
DATGGSSS | no binding
DATGGSSY | no binding
DATGGSSA | no binding
DATGGSSV | no binding
DARGGDGS | no binding
SEAGDAVV | no binding

Variant | non-specific binding call
VEAGDDAV | no binding
VEAGDDAA | no binding
DATGGDAD | no binding
AATTDAGD | no binding
VEAGSDGV | no binding
VEAGDSWV | no binding
SARRGDWA | binds
DARGGDAA | no binding
DEARGAGD | no binding
VEAGDDVV | no binding
VEAGDDVY | no binding
YATAADWD | no binding
YATKGAWA | binds
DATGGAVA | no binding
YARRGSLD | binds
YATEDSGF | no binding
SEARSAWA | no binding
SEARSAWS | no binding
VARKGVGV | binds
VEAGTAVA | no binding
YATEDDWV | no binding
VATGSSGA | no binding

— the emibetuzumab library of Makowski et al. (2022)
